Results taken from publication PMC4021333.

Biological target: Dipeptidyl aminopeptidase BII (DAP BII) from Pseudoxanthomonas mexicana WO24, wild type (Pseudoxanthomonas mexicana WO24) (UniProt V5YM14)
Experiment: enzyme inhibition assay

Dipeptidyl aminopeptidase BII (DAP BII) from Pseudoxanthomonas mexicana WO24, wild type (Pseudoxanthomonas mexicana WO24), sequence (V5YM14 25-722): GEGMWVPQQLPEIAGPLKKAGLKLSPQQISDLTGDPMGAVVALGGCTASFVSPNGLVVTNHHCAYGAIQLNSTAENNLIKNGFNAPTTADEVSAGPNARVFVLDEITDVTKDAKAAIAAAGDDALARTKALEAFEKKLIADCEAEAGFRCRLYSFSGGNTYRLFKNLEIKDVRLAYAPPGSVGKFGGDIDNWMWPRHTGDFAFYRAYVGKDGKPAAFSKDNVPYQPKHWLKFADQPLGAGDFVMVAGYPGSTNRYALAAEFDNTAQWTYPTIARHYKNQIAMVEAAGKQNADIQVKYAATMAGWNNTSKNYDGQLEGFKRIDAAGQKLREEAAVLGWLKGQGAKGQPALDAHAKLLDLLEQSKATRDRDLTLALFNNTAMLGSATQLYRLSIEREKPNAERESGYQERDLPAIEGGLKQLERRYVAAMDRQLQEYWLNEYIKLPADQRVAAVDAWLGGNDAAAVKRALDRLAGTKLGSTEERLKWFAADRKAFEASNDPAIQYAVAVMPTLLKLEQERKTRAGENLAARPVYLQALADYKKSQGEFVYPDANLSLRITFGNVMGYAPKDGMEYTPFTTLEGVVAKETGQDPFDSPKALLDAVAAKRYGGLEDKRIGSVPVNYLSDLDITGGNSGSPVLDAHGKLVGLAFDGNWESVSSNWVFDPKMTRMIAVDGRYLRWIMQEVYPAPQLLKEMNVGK

Ki: 410 µM
Substance: dipeptide Val-Tyr
